The values below come from article PMC8939769 (2022).

The term IC50 denotes the concentration needed to halve the response being measured. Lower therefore signals higher potency.

In the assay the target is SARS-CoV-2 spike protein receptor binding domain (RBD) (SARS-CoV-2, UniProt P0DTC2 319-541). The experiment in a line: ELISA. (An ELISA detects its analyte on a solid surface through an enzyme-linked reagent.)

B1: AZD8895 (tixagevimab) (antibody, V domains shown)
VH: QMQLVQSGPEVKKPGTSVKVSCKASGFTFMSSAVQWVRQARGQRLEWIGWIVIGSGNTNYAQKFQERVTITRDMSTSTAYMELSSLRSEDTAVYYCAAPYCSSISCNDGFDIWGQGTMVTVSS
VL: not shown
In turn, B1 came in with an IC50 of 0.0477 µg/mL.
